Substitutions are numbered along the chain they refer to.
T1: human β-Klotho (human, UniProt Q86Z14 1-1044)
T1 sequence (looked up): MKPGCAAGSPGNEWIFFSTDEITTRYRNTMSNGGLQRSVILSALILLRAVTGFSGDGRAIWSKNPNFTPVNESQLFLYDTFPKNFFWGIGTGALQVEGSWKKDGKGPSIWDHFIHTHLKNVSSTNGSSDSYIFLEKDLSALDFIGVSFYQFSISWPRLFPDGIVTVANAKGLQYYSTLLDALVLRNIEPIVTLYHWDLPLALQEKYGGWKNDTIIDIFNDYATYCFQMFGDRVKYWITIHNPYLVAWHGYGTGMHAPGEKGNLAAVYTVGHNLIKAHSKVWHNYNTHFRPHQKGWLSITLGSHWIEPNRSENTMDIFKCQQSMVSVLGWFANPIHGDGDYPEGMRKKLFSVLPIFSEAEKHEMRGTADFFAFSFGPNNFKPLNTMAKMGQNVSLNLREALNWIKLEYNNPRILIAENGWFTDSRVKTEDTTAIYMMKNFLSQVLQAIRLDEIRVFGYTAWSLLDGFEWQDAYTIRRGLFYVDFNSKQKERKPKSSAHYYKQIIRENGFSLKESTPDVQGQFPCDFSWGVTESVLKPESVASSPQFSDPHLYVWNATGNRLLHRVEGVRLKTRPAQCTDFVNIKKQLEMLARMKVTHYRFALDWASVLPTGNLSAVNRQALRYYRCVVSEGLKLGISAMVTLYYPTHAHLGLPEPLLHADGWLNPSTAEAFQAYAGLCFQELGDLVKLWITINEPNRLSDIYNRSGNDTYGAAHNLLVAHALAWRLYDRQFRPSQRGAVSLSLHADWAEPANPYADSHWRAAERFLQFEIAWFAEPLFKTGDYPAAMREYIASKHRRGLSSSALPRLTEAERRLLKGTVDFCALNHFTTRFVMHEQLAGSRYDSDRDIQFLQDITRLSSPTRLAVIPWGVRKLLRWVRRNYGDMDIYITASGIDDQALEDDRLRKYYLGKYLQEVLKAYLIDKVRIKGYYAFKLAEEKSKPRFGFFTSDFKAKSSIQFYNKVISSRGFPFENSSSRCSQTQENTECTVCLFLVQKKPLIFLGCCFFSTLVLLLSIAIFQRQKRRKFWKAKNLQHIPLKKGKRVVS

B1: 20 kDa PEG-FGF-21 P(5)TSSP mutant conjugate (ligand)
chain: MHPIPTSSPLLQFGGQVRQRYLYTDDAQQTEAHLEIREDGTVGGAADQSPESLLQLKALKPGVIQILGVKTSRFLCQRPDGALYGSLHFDPEACSFRELLLEDGYNVYQSEAHGLPLHLPGNKSPHRDPAPRGPARFLPLPGLPPALPEPPGILAPQPPDVGSSDPLSMVGPSQGRSPSYAS
modifications: GalNAc-SA-PEG-20 kDa (glycoPEG) on the introduced threonine 6
B2: 30 kDa PEG-FGF-21 P(5)TSSP mutant conjugate (ligand)
chain: B1 chain
modifications: GalNAc-SA-PEG-30 kDa (glycoPEG) on the introduced threonine 6
B3: 30 kDa PEG-FGF-21 P(172)TQGAS mutant conjugate (ligand)
chain: B1 chain with T6D, S173T, R176A
modifications: GalNAc-SA-PEG-30 kDa (glycoPEG) on the introduced threonine 173
B4: 30 kDa PEG-FGF-21 P(156)TP mutant conjugate (ligand)
chain: B1 chain with T6D, Q157T
modifications: GalNAc-SA-PEG-30 kDa (glycoPEG) on the introduced threonine 157
B5: 20 kDa PEG-FGF-21 P(156)TP mutant conjugate (ligand)
chain: B1 chain with T6D, Q157T
modifications: GalNAc-SA-PEG-20 kDa (glycoPEG) on the introduced threonine 157
B6: 20 kDa PEG-FGF-21 P(172)TQGAS mutant conjugate (ligand)
chain: B1 chain with T6D, S173T, R176A
modifications: GalNAc-SA-PEG-20 kDa (glycoPEG) on the introduced threonine 173

Target: T1, human β-Klotho
Experiment: cell-based or functional assay

Compared with B1, B2 is higher in “ERK phosphorylation HEK-293 cells expressing β-Klotho EC50 values”: 293 nM for the first, greater than 3000 nM for the second.

B3 and B4 are within 1.5-fold of each other in “ERK phosphorylation HEK-293 cells expressing β-Klotho EC50 values”: 177 nM for the first, 188 nM for the second.

B5 and B6 are within 1.5-fold of each other in “ERK phosphorylation HEK-293 cells expressing β-Klotho EC50 values”: 109 nM for the first, 86 nM for the second.

Source: patent US20240116995A1 (89BIO, published 2024)
